{
  "source": "patent US20250250350",
  "proteins": {"B1": {"name": "Alkaline Phosphatase, Germ Cell (ALPG) expressed on K562-ALPG and K562-ALPG/MSLN target cells (protein)", "chain": "IIPVEEENPDFWNRQAAEALGAAKKLQPAQTAAKNLIIFLGDGMGVSTVTAARILKGQKKDKLGPETFLAMDRFPYVALSKTYSVDKHVPDSGATATAYLCGVKGNFQTIGLSAAARFNQCNTTRGNEVISVMNRAKKAGKSVGVVTTTRVQHASPAGAYAHTVNRNWYSDADVPASARQEGCQDIATQLISNMDIDVILGGGRKYMFPMGTPDPEYPDDYSQGGTRLDGKNLVQEWLAKHQGARYVWNRTELLQASLDPSVTHLMGLFEPGDMKYEIHRDSTLDPSLMEMTEAALLLLSRNPRGFFLFVEGGRIDHGHHESRAYRALTETIMFDDAIERAGQLTSEEDTLSLVTADHSHVFSFGGYPLRGSSIFGLAPGKARDRKAYTVLLYGNGPGYVLKDGARPDVTESESGSPEYRQQSAVPLDGETHAGEDVAVFARGPQAHLVHGVQEQTFIAHVMAFAACLEPYTACDLAPRAGTTD"}},
  "molecular_target": "ALPG/P priming receptor of the AB-1013, AB-1014 and AB-1015 circuits",
  "sequence (chain, as listed by the source)": "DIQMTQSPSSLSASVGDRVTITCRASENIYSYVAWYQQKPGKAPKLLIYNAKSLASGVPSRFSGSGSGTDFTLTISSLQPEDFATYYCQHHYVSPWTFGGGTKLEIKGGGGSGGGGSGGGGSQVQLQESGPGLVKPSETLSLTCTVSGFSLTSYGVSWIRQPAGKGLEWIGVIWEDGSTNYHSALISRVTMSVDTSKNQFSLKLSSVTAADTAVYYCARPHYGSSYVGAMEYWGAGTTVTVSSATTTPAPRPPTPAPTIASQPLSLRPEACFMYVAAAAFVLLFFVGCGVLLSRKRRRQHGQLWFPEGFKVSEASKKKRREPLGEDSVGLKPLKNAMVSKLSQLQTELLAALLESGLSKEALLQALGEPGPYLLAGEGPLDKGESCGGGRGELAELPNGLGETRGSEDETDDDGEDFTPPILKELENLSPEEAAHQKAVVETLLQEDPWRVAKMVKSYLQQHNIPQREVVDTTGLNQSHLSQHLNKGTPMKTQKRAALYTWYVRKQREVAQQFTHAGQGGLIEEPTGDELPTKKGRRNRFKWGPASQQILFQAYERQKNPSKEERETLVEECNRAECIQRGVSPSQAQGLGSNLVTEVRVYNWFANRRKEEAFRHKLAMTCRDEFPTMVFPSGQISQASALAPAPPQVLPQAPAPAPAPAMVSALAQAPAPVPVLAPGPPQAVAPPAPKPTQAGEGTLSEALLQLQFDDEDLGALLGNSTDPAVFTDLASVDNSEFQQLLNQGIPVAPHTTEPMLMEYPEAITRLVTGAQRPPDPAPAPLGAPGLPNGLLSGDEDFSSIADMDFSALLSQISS",
  "data": [
    {"protein": "B1", "values": [
      {"measurement": "time to peak of ALPG-dependent CAR conversion", "value": "reached a peak after around 100 hours of stimulation with the PrimeR antigen"}
    ]}
  ]
}
